Reference: patent publication US20250304677A1 (VIB VZW, published 2025)

Columns and labels:
[1] = molecular target: T1, mouse folate receptor alpha (mFRα), recombinant protein (mouse, UniProt P35846 25-232); assay: ELISA, periplasmic extract
T1 construct: Bought recombinant proteins (e.g. biotinylated, Acro Biosystems FO1-M82E9); also called mFOLR1; Ms FOLR1
Excerpt: (§1) From the lymphocytes of each llama a separate VHH library was constructed to select and screen for the presence of antigen-specific VHHs. To this end, total RNA from peripheral blood lymphocytes was used as template for first strand cDNA synthesis with an oligo ^{∘}dT) primer. Using this cDNA, the VHH encoding sequences were amplified by PCR, digested with PstI and NotI, cloned into the PstI and NotI sites of the phagemid vector pMECS and transformed into E. coli to generate VHH libraries. To enrich these libraries for FRα ^{∘}or FOLR1, as used interchangeably herein)-specific VHHs, a combinatorial panning approach on recombinant human and mouse FOLR1 was used followed by random selection and screening of clones by ELISA for the presence of antigen-specific VHHs in their periplasmic extracts ^{∘}PEs). In order to gauge the cross-reactivity for human and mouse FOLR1, each clone was tested on both antigens.
(§2) After panning of core76/77 on human and mouse folate receptor alpha ^{∘}FRα), […] were randomly selected from the second and third rounds and analyzed by ELISA on both human and mouse FRα for the presence of FRα-specific VHHs in their periplasmic extracts ^{∘}PE). This led to the identification of 98 hits. For these 98 hits, the off-rate ^{∘}koff) in the PE was determined by biolayer interferometry ^{∘}BLI) on both mouse and human FRα that was directly immobilized onto AR2G biosensors. The off-rates were calculated using a 1:1 binding model. […] Abbreviations: SE: standard error.

[2] = molecular target: T1, mouse folate receptor alpha (mFRα), …; assay: BLI, FRα on AR2G biosensors, 1:1 model
Protocol: As a next step, the kinetic binding constants were determined using BLI ^{∘}Table 3). […] Similar to the ELISA results ^{∘}FIG. 1A-B), higher binding affinities were measured for mouse FRα than human FRα, with KD values […] one order of magnitude in most cases. […] For 3HFO28, binding to human FRα could not be confirmed by BLI, and this VHH was excluded from further characterization.
The kinetic parameters were calculated using a 1:1 binding model.

[3] = molecular target: T2, human folate receptor alpha (hFRα), recombinant protein (human, UniProt P15328 25-233); assay: BLI, periplasmic extract, FRα on AR2G biosensors; unpurified periplasmic extract, BLI off-rate screen
T2 construct: Bought recombinant proteins (His-tagged, or biotinylated via Avi-tag, e.g. AcroBiosystems FO1-H82E2, F01-H52H1); also called hFOLR1; huFOLR1
Protocol: as §2

[4] = molecular target: T1, mouse folate receptor alpha (mFRα), …; assay: BLI, periplasmic extract, FRα on AR2G biosensors
Protocol: as §2

[5] = molecular target: T3, human folate receptor beta (FRβ) (human, UniProt P14207 17-230, limits assumed); assay: method not named (follows the ELISA of Example 3)
T3 construct: also called hFOLR2; human FOLR2

[6] = molecular target: T1, mouse folate receptor alpha (mFRα), …; assay: ELISA on recombinant mouse FOLR1, cMyc tag detection, normalised binding, non-linear fit
Protocol: (§3) Data were normalized and technical replicates were plotted as mean±SD. Data were fitted by non-linear regression and the half-maximal effective concentration ^{∘}EC50) was calculated using GraphPad Prism 9 software. ^{∘}FIG. 1C and FIG. 1D) Binding affinity determination of anti-FOLR1 VHHs for native FOLR1. Mouse ^{∘}FIG. 1C) or human FOLR1 FIG. 1D) was overexpressed on HEK293T cells and binding of the anti-FOLR1 VHHs was assessed using flow cytometry. The mean fluorescence intensity ^{∘}MFI) of the phycoerythrin signal was plotted for each VHH concentration. Data were fitted by non-linear regression using GraphPad Prism 9 software. ^{∘}FIG. 1E) Determination of the competition of representative family members with folic acid ^{∘}FA) using ELISA. Mouse FOLR1 was coated on the plate and was pre-incubated with or without 100 μM FA before adding the VHHs. Data were fitted by non-linear regression using GraphPad Prism 9 software.
(§4) In a first step, binding affinity and cross-reactivity of the purified VHHs to human and mouse FRα was assessed by ELISA, using detection of the cMyc tag ^{∘}FIG. 1A-B). […] 2HFO19 ^{∘}family 1) was the best binder of all tested VHHs to both mouse and human FRα with an EC₅₀ of 0.1 nM and 0.4 nM respectively ^{∘}FIG. 1A-B).

[7] = molecular target: T2, human folate receptor alpha (hFRα), …; assay: ELISA, periplasmic extract; unpurified periplasmic extract, PE-ELISA (ratio of coated to uncoated well)
Excerpt: as §1, with “In order to gauge the cross-reactivity for human and mouse FOLR1, each clone was tested on both antigens.” left out
After panning of core76/77 on human and mouse folate receptor alpha ^{∘}FRα), 95 colonies were randomly selected from the second and third rounds and analyzed by ELISA on both human and mouse FRα for the presence of FRα-specific VHHs in their periplasmic extracts ^{∘}PE). […] For these 98 hits, the off-rate ^{∘}koff) in the PE was determined by biolayer interferometry ^{∘}BLI) on both mouse and human FRα that was directly immobilized onto AR2G biosensors. The off-rates were calculated using a 1:1 binding model. […]

[8] = molecular target: T2, human folate receptor alpha (hFRα), …; assay: ELISA on recombinant human FOLR1, cMyc tag detection, normalised binding, non-linear fit
Protocol: as §3, §4

[9] = molecular target: T1, mouse folate receptor alpha (mFRα), …; assay: ELISA on mouse FRα, anti-VHH detection
Method in brief: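 Dose-dependent binding of VHH variants to mouse folate receptor alpha was measured by ELISA with anti-VHH detection. EC50 was read off the dose-response curve.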

[10] = molecular target: T2, human folate receptor alpha (hFRα), …; assay: competition AlphaLISA against 2MFR67-Flag3-His6 on human FRα
Protocol: Secondly, the variants were analysed for the capacity to compete with binding of family 3 VHH 2MFR67 to human FRα in a competition AlphaLISA, which is a homogeneous assay without wash steps. In here, human FRα biotinylated through an Avi-tag ^{∘}FO1-H82E2, AcroBiosystems) is captured on streptavidin coated Alpha Donor beads ^{∘}Perkin Elmer, Cat nr. 6760002), while the 2MFR67 is captured on anti-Flag antibody AlphaLISA acceptor beads ^{∘}Perkin Elmer, Cat nr. AL112C). Binding of 2MFR67 to the FRα leads to an energy transfer from one bead to the other, ultimately producing a fluorescent signal. To each well of white low binding 384-well microtitre plates ^{∘}F-bottom, Greiner Cat nr 781904), 5 μl of serial-diluted VHHs are mixed with 5 μl of 2.5 nM monovalent 2MFR67-Flag3-His6 and 5 μl of 15 nM biotinylated human FRα protein. After an incubation for 1 hour at room temperature, streptavidin coated Alpha Donor beads and anti-Flag AlphaLISA acceptor beads were added to a final concentration of 20 μg/mL each in a final volume of 25 μl for an incubation of 1 hour at room temperature in the dark. Interaction between beads was assessed after illumination at 680 nm and reading at 615 nm of on an Ensight instrument. Curve fitting is done in Graphpad Prism 9.0 using 4PL non-linear regression analysis.

[11] = molecular target: T2, human folate receptor alpha (hFRα), …; assay: ITC, VHH injected into 6.5 µM glycosylated human FOLR1
Excerpt: (§5) To exclude the presence of a potential additional binding site mediated by the CDR4 region, we determined the stoichiometry if the humanized variant h1 2HFO42 (P01500001) and h1 2MFR67 (P01500005) interaction with human FOLR1 in isothermal titration […] (ITC) studies, using glycosylated human FOLR protein (AcroBiosystems Cat. Nr F01-H52H1). All proteins were dialysed overnight to PBS buffer and concentrated using Amicon Ultra 10 kDa cut-off centrifugal filter devices. Human FOLR1 was used at a concentration of 6.5 μM in the cell. Titrations comprised 26×1.5 μL injections of VHH into the protein, with 90 s intervals. An initial injection of ligand (0.4 μL) was made and discarded during data analysis. All data were performed at room temperature. The data were fitted to a single binding site model using the PEAQ ITC analysis software provided by the manufacturer.
Similarly, a stoichiometry of 1:1 was determined for the 2MFR67-FOLR1 interaction. When comparing the thermodynamic parameters, binding of 2MFR67 to FOLR1 comes with an entropic penalty, whereas the entropic contribution for humanised 2HFO42-FOLR1 binding is favorable. This could be a consequence of the CDR4 loop having more freedom in 2MFR67, resulting in an entropic penalty upon binding. […]

[12] = molecular target: T2, human folate receptor alpha (hFRα), …; assay: BLI, Avi-biotinylated FRα on streptavidin biosensors, VHH 100 nM
Protocol: (§6) The binding of humanized variants of 2HFO42 was assessed by kinetic binding analysis to mouse and human FRα protein, biotinylated via an Avi-tag, captured on streptavidin biosensors by biolayer interferometry ^{∘}BLI), essentially as described earlier. VHHs were analysed at 100 nM concentration, and off-rates were determined using fitting of 1:1 langmurian interaction. Dissociation constants were compared to 2HFO42^{∘}Q1E, Q5V, Q108L) ^{∘}P101500004) and 2MFR67 ^{∘}Q1E, Q5V, Q108L) ^{∘}P0150000), respectively.

[13] = molecular target: T1, mouse folate receptor alpha (mFRα), …; assay: as above
Protocol: as §6

[14] = molecular target: T2, human folate receptor alpha (hFRα), …; assay: ITC, VHH injected into 6.5 µM glycosylated human FOLR1 in PBS, room temperature, single binding site model
Excerpt: as §5

[15] = molecular target: T1, mouse folate receptor alpha (mFRα), …; assay: method of this value not stated (ELISA, BLI and FACS named)
[16] = molecular target: T2, human folate receptor alpha (hFRα), …; assay: BLI, biotinylated FOLR1 on streptavidin biosensors
Protocol: (§7) The off-rates of the 2HFO9 ^{∘}FIG. 5A) and 2MFR67 ^{∘}FIG. 5B) mutants and the three wild-type ^{∘}WT) VHHs from family 3 were determined by biolayer interferometry ^{∘}BLI) on both mouse and human biotinylated folate receptor alpha ^{∘}FOLR1) that was immobilized on streptavidin biosensors. The off-rates were calculated using a 1:1 binding model. The fold change compared to the off-rates of the corresponding WT VHH is represented as the WT VHH off-rate divided by the off-rate of the mutant for the VHHs that show an improved off-rate compared to the WT. For the VHHs that show a worse off-rate compared to the WT, the fold change is represented as the negative value of the mutant VHH off-rate divided by the WT off-rate. The red bars represent the WT 2HFO9 and 2MFR67 in the upper and lower panel respectively.

[17] = molecular target: T1, mouse folate receptor alpha (mFRα), …; assay: BLI, biotinylated FOLR1 on streptavidin biosensors
Protocol: as §7

T1 sequence (P35846 25-232 limits assumed): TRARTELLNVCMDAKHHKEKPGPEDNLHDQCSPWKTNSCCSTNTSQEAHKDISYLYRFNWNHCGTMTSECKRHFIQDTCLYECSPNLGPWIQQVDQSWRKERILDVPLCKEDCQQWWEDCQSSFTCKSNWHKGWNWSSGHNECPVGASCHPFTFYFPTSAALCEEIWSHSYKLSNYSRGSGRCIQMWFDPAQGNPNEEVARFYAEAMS
T2 sequence (P15328 25-233 limits assumed): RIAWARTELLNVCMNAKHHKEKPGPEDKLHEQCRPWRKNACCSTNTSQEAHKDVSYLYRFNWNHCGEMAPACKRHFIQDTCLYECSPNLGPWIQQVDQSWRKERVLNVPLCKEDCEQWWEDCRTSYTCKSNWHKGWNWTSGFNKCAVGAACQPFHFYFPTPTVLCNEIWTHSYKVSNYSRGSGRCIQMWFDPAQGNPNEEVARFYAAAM
T3 sequence (P14207 17-230 limits assumed): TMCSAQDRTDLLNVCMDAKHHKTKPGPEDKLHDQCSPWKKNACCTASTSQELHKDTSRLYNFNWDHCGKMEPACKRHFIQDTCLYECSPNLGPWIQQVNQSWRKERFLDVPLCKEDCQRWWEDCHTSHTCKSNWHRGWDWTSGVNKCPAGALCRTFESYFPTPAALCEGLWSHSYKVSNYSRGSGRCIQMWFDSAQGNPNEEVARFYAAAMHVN

Binder | EC50 (read off the curve) [9] [nM] | IC50 [10] [nM] | stoichiometry (ITC) [11] | koff [12] [s⁻¹] | koff [13] [s⁻¹] | -TΔS [14] [kcal/mol] | Kd [14] [nM] | ΔG [14] [kcal/mol] | ΔH [14] [kcal/mol] | other results
VHH 3HFO28 (family 7) (VHH) VHH: QVQLQESGGGLVQPGGSLRLSCAASGSTLDRYEIGWFRQAPGKGRERVSCISTTSSTYEDSVKGRFTISRDNAKNTVYLQMNSLKPEDTAVYYCATVRVAWSTCFPTGDSWGKGTQVTVSS | – | – | – | – | – | – | – | – | – | PE-ELISA (ratio to uncoated well) [1]: 34.9; Kd [2]: 12.6 nM; koff [2]: 0.00582 s⁻¹; kon [2]: 464000 M⁻¹ s⁻¹; koff [3]: 0.00827 s⁻¹; koff [4]: 0.00425 s⁻¹; binding result [5]: no binding; EC50 [6]: 84.3 nM; PE-ELISA (ratio to uncoated well) [7]: 35.6; EC50 [8]: 1.5 nM
P01500001 = humanised variant 1 (h1) 2HFO42-His6: 2HF042(Q1E, Q5V, A14P, V40A, L79Y, K83R, Q108L)-HIS6 (VHH, Entry includes the tag; also called P0150001; humanised 2HFO42) VHH: EVQLVESGGGLVQPGGSLRLSCAASGSGFSGMIMGWYRQAPGKQRELVATVTSHGTTNYADSVKGRFTISRDNAKNTVYLQMNSLRPEDTAVYYCNAHFPGIYWGKGTLVTVSS | ~4 | 37.3 | 1 | 0.011 | 0.00126 | -3.04 | 39.2 | -10.1 | -7.07 | –
2HFO42-NT (2HFO42 fused to neurotensin) (VHH) VHH: QVQLQESGGGLVQAGGSLRLSCAASGSGFSGMIMGWYRQVPGKQRELVATVTSHGTTNYADSVKGRFTISRDNAKNTVLLQMNSLKPEDTAVYYCNAHFPGIYWGKGTQVTVSS | – | – | – | – | – | – | – | – | – | Kd [15]: 23.3 nM; Fold hu/ms (koff) [16]: 7; koff [16]: 0.0154 s⁻¹; Fold to 2HF042 (koff) [17]: 1; koff [17]: 0.00222 s⁻¹
P01500005: 2MFR67(Q1E, Q5V, Q108L)-HIS6 (VHH, Entry includes the tag; also called 2MFR67 (P01500005); P0150005) VHH: EVQLVESGGGLVQAGGSLRLSCAASGSGFSGMIMGWYRQAPGKQRELVATVTSHGTTNYADSVKGRFTISREDSKNTVLLQMNSLKPEDTAVYYCNAHFPGIYWGKGTLVTVSS | ~3 | 5.53 | 1 | 0.00353 | 0.000532 | 3.57 | 18.2 | -10.6 | -14.1 | –
